Measurements reported in patent US7041441 (US Dept. of Health and Human Services, dated 2006).

B1: SOC (small outer capsid) protein of bacteriophage T4, wild type (other)
chain: MASTRGYVNIKTFEQKLDGNKKIEGKEISVAFPLYSDVHKISGAHYQTFPSEKAAYSTVYEENQRTEWIAANEDLWKVTG
notes: mature
B2: SOC-V3 fusion protein (SOC, Cys-Leu-Asn-Ser, 43-residue V3 loop domain of HIV-1 gp120) (other)
chain: MASTRGYVNIKTFEQKLDGNKKIEGKEISVAFPLYSDVHKISGAHYQTFPSEKAAYSTVYEENQRTEWIAANEDLWKVTGCLNSSVEINCTRPNNNTRKRIRIQRGPGRAFVTIGKIGNMRQAHCNI
notes: mature;domain: V3 loop; also called SOV-V3

Target: T1, gp23* (major capsid protein of bacteriophage T4, cleaved mature form, in the expanded surface lattice) (bacteriophage T4, UniProt P04535 66-521)
T1 construct: mature; also called surface lattice protein; cleaved/expanded polyheads
T1 sequence: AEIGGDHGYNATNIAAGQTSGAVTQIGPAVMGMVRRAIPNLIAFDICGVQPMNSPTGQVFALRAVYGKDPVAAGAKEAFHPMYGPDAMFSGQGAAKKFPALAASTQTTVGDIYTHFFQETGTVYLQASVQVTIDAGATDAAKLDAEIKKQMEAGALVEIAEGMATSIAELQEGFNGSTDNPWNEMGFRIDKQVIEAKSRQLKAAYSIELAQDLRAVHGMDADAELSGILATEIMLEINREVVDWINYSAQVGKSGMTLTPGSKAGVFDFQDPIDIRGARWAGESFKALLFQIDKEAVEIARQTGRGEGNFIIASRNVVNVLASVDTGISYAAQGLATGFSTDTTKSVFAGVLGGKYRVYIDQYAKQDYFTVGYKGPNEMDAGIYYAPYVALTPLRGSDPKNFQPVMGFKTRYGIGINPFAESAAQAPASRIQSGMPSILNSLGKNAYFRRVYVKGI
Assay: co-pelleting with cleaved/expanded polyheads, quantitation of SDS-PAGE bands

Binder | molar ratio of SOC:gp23* | molar ratio of SOC-V3:gp23*
B1 | 1.2 mol/mol | 
B2 |  | 1.8 mol/mol
